The values that follow come from article PMC11832421, “Structural basis for the inhibition of PRC2 by active transcription histone posttranslational modifications” (Nature Structural & Molecular Biology, 2025).

First the molecules themselves.
B2: JARID2 1–450 with K116me3 (within PRC2AJ1–450) (domain or fragment, UniProt Q92833 1-450, looked up)
chain: MSKERPKRNIIQKKYDDSDGIPWSEERVVRKVLYLSLKEFKNSQKRQHAEGIAGSLKTVNGLLGNDQSKGLGPASEQSENEKDDASQVSSTSNDVSSSDFEEGPSRKRPRLQAQRKFAQSQPNSPSTTPVKIVEPLLPPPATQISDLSKRKPKTEDFLTFLCLRGSPALPNSMVYFGSSQDEEEVEEEDDETEDVKTATNNASSSCQSTPRKGKTHKHVHNGHVFNGSSRSTREKEPVQKHKSKEATPAKEKHSDHRADSRREQASANHPAAAPSTGSSAKGLAATHHHPPLHRSAQDLRKQVSKVNGVTRMSSLGAGVTSAKKMREVRPSPSKTVKYTATVTKGAVTYTKAKRELVKDTKPNHHKPSSAVNHTISGKTESSNAKTRKQVLSLGGASKSTGPAVNGLKVSGRLNPKSCTKEVGGRQLREGLQLREGLRNSKRRLEEAHQA
modifications: trimethyl-lysine at K116 (JARID2 K116me3)
notes: JARID2 residues 1–450; Stood in the assay as a subunit of m1; also called JARID2 K116me3; methylated JARID2; source: Sf9 insect cells (baculovirus), purified as part of the PRC2 complex

In assay [1] the target is B2. As to the kind of experiment: cryo-EM structure; 100 nM nucleosome (biotinylated DNA, held on streptavidin affinity grids) with 500 nM PRC2 in 50 mM HEPES pH 7.5, 50 mM KCl, 0.5 mM TCEP, 100 µM S-adenosyl homocysteine; 3–5 min at room temperature. The note with it: both partners purified.
Assay [2] concerns the target T1, EZH2 (catalytic subunit, within the PRC2 complexes) (UniProt Q15910 1-746).
T1 construct: EZH2; Stood in the assay as a subunit of m1 or m2; source: Sf9 insect cells (baculovirus), purified as part of the PRC2 complex
Described as above. To be noted: both partners purified.

T1 sequence (Q15910 whole entry, one chain of several): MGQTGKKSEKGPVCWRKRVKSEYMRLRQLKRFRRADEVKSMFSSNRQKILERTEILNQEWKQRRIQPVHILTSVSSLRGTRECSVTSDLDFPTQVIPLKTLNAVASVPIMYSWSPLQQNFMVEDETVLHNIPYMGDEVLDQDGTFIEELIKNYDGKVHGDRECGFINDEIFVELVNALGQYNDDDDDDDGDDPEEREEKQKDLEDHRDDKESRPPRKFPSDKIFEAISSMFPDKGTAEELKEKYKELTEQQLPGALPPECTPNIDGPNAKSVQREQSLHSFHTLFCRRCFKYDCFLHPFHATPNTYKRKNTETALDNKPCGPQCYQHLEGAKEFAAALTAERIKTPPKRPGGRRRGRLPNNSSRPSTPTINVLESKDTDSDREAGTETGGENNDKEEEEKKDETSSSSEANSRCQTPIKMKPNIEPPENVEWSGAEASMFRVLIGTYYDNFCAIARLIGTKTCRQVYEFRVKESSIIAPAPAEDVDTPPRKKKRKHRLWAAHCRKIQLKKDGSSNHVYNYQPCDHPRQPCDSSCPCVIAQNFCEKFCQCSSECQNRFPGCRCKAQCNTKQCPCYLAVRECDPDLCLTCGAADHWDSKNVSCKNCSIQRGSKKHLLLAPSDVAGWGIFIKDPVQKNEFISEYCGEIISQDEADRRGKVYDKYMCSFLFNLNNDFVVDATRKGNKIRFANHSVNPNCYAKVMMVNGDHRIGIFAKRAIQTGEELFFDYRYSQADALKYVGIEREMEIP

B1: EED (core subunit, within the PRC2 complexes) (natural protein)
chain: not shown
notes: EED; Stood in the assay as a subunit of m1 or m2; source: Sf9 insect cells (baculovirus), purified as part of the PRC2 complex
Turning to B1, the binding result in assay [1] is reported as “binds”.

Take B2: in assay [2], the binding result was “binds”.
